The values below come from article PMC3590139, “Isocitrate Dehydrogenase from Streptococcus mutans: Biochemical Properties and Evaluation of a Putative Phosphorylation Site at Ser102” (PLoS ONE, 2013).

Substrate in data set [1]: NC(=O)c1ccc[n+]([C@@H]2O[C@H](COP(=O)(O)OP(=O)(O)OC[C@H]3O[C@@H](n4cnc5c(N)ncnc54)[C@H](O)[C@@H]3O)[C@@H](O)[C@H]2O)c1
In words: purified protein. Conditions: saturating DL-isocitrate, 35 mM Tris-HCl pH 7.5, […] MnCl2, 37 °C.

Substrate in data set [2]: O=C(O)CC(C(=O)O)C(O)C(=O)O
The data set can be described thus: purified protein. Conditions: saturating NAD+, 35 mM Tris-HCl pH 7.5, […] MnCl2, 37 °C.

Data set [3] concerns the molecule itself. In words: SEC; HiLoad 10/300 Superdex 200, 0.05 M potassium phosphate pH 7.0, 0.15 M NaCl, 0.01% NaN3, flow 0.5 ml/min; calibrated with ovalbumin, conalbumin, aldolase, ferritin, thyroglobulin; native mass estimated as 70 kDa against a 43 kDa subunit.

B1: SmIDH (Streptococcus mutans UA159) (protein)
chain: MAEKVSFEEGKLQVPDKPVIPYIEGDGVGQDIWKNAQIVFDKAIAKVYGGHKQVIWREVLAGKKAYNETGNWLPNETLEIIKTHLLAIKGPLETPVGGGIRSLNVALRQELDLFACVRPVRYFKGVPSPLKHPEKTAITIFRENTEDIYAGIEWNAGTAEVQKVINFLQDDMQVKKIRFPKSSSIGIKPISIEGSQRLIRAAIEYALANNLTKVTLVHKGNIQKFTEGGFRKWGYELAKREYAAELASGQLVVDDIIADNFLQQILLKPERFDVVALTNLNGDYASDALAAQVGGIGISPGANINYQTGHAIFEATHGTAPDIAGQDLANPSSVLLSGCMLFDYIGWSKVSDLIMKAVEKAIANGQVTIDFAKELGVEALTTRQFSEVLLTYL
As to B1, in “purified protein [1]”, the Km is 154 µM, the turnover number (kcat) came out at 56 s⁻¹ and the kcat/Km came to 360000 M⁻¹ s⁻¹. In addition, in “purified protein [2]”, the Km stood at 75 µM, the kcat was 124 s⁻¹ and the kcat/Km was determined as 1.65e+06 M⁻¹ s⁻¹.

B2: NAD+-dependent isocitrate dehydrogenase of Streptococcus mutans (enzyme, UniProt Q59940 1-393, looked up)
chain: B1 chain
notes: 399 residues per subunit with the tag; The C-terminal position of the His6 tag is read from the reverse primer R-Sm^icd (CTA + six GTG codons on the antisense strand); also called SmIDH; S. mutans IDH; not shown: His6, C-terminal, kept
Turning to B2, the “stoichiometry N” value in data set [3] was 2.
